# In paper PMC5555194:
# Several values for one entry are separate records, joined by “and”; a condition that tells them apart may be missing. Identical values can stand only once.
# Molecular target: C3b (human) (UniProt P01024)
# Test: SPR; C3b amine-coupled to a Biacore C1 chip; dilution series of CFH (from 2.5 to 0.019 uM), preincubated with or without a 2-fold molar excess of PspCN, flowed over; Biacore T200, 25 °C, 10 mM HEPES, 150 mM NaCl, 0.05% P20; 1:1 steady-state model; three experiments on different chips
# C3b (human), sequence (P01024 23-667, chain 1 of 2): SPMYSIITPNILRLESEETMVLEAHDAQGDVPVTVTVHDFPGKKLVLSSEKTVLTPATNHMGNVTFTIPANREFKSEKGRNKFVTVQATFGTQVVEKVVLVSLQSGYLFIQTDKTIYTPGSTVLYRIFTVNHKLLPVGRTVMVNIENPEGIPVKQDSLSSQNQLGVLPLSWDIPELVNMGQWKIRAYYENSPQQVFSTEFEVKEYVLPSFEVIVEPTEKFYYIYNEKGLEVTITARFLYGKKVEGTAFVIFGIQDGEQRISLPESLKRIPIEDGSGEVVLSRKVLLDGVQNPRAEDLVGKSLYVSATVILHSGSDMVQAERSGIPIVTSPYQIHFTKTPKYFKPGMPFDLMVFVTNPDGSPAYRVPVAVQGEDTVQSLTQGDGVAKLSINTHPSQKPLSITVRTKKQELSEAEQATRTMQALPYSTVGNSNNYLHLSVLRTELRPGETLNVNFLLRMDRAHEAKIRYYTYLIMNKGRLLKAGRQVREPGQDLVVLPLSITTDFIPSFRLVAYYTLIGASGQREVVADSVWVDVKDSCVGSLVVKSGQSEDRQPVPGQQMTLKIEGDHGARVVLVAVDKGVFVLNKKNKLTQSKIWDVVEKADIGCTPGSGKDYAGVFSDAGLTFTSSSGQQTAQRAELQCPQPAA
# C3b (human), sequence (P01024 749-1663, chain 2 of 2): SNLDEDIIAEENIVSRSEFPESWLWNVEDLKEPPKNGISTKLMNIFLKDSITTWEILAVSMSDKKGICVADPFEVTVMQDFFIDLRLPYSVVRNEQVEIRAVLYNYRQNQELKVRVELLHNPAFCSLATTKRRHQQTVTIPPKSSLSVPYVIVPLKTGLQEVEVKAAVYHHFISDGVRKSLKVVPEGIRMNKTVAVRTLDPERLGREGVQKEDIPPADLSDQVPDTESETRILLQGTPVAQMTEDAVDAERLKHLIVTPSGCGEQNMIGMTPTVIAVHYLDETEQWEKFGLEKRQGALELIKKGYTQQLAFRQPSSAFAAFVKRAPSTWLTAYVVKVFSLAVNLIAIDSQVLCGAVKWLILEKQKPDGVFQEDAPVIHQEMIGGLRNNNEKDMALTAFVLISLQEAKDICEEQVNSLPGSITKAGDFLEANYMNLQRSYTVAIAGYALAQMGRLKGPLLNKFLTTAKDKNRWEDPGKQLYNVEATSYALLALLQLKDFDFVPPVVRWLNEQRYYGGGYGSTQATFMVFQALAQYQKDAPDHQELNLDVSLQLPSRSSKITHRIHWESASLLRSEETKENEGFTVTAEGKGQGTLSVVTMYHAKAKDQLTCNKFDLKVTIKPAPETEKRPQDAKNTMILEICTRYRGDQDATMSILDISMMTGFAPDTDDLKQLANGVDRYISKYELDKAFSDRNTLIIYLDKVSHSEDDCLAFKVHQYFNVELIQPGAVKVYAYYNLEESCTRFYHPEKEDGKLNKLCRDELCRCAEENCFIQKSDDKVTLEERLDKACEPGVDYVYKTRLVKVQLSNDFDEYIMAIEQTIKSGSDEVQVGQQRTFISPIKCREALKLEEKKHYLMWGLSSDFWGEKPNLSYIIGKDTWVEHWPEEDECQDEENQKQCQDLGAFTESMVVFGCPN
row,Substance,Kd
1,CFH purified from human plasma (plasma CFH) (from UniProt P08603 19-1231) (natural protein),0.33 µM
2,LA-CFH–PspCN complex (from UniProt P08603 19-1231; Q9KK19 37-140),0.7 µM and 0.6 µM
3,R53H-CFH–PspCN complex (from UniProt P08603 19-1231; Q9KK19 37-140),1 µM and 0.58 µM
4,I62-CFH–PspCN complex (from UniProt P08603 19-1231; Q9KK19 37-140),0.62 µM and 0.5 µM
